Earlier results as cited in article PMC8481289.

Target: UFC1 (Homo sapiens) (UniProt Q9Y3C8)
Sequence (Q9Y3C8 whole entry): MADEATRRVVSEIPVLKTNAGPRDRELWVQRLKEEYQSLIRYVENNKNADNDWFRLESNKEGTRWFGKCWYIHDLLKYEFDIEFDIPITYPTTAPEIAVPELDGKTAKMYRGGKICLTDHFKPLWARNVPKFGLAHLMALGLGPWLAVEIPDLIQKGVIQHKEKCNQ

Sequence of UBA5 (Q9GZZ9 whole entry): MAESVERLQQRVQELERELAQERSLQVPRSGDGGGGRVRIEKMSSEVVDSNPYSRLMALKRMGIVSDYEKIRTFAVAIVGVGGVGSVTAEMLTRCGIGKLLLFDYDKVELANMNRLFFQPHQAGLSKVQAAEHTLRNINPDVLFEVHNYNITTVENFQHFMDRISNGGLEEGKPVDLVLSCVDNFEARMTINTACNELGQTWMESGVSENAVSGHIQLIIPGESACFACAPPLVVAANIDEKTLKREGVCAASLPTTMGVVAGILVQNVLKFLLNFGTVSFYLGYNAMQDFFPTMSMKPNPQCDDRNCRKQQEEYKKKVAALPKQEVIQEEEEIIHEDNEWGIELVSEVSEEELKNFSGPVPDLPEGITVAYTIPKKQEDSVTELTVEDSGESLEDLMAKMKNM

Kd: 1000 nM
Substance: UBA5 (from UniProt Q9GZZ9)
